Blank lines part the entries; values can stand above or below the binder they belong to.
Columns and labels:
human ceruloplasmin [1] = biological target: T1, human ceruloplasmin (human, UniProt P00450 20-1065); assay: competition ELISA on coated CP, biotinylated probe; competitor: CP-pAb
T1 construct: also called CP; purified CP
T1 sequence: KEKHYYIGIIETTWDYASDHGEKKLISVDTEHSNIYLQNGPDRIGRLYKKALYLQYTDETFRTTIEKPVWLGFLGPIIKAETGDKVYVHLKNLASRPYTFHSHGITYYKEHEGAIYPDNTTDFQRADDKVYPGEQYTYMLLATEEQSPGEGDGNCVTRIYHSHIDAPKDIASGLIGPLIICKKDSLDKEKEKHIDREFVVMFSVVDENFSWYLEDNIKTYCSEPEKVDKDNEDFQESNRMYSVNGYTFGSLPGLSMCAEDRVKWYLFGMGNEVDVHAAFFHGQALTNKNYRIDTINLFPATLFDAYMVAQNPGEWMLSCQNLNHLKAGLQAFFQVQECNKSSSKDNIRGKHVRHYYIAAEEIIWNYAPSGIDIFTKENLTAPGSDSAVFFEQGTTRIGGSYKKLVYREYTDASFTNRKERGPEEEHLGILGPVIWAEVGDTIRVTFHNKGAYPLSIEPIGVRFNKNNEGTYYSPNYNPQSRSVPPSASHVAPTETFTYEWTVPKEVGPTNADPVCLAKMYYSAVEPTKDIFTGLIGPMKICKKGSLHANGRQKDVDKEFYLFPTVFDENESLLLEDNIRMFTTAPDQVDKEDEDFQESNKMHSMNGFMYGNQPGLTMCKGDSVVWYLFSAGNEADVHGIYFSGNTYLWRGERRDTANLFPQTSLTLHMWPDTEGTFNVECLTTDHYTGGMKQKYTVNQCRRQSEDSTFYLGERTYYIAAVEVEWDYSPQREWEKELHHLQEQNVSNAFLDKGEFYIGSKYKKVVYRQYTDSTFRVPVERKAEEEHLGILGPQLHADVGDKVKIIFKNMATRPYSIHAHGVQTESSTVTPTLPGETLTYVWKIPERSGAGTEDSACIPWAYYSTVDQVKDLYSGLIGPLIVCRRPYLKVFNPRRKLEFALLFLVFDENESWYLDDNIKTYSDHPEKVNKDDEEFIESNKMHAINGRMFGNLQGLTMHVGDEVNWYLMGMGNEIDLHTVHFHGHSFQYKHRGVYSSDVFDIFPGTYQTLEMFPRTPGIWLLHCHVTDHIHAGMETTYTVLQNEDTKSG
Procedure: (§1) To assess whether any of the 8 anti-CP antibodies competed with each other for binding to CP, the following ELISA study was performed.
(§2) Briefly, CP was coated onto plates at 0.4 ug/mL overnight. Plates were then blocked with 1% BSA for 4 hours, incubated with 10 ug/mL unlabeled blocking antibody for 1 hour, and then, without washing, 50 ng/mL of biotinylated probe antibody for 1 hour. Plates were washed and subsequently incubated with SA-HRP for 30 minutes, followed by another wash. Plates were then incubated with TMB substrate for either 30 minutes or 15 minutes, as noted below, and the reaction was stopped by adding 0.18 M sulfuric acid and read at A450. The experiment was performed on two plates with plate 1 having a TMB incubation time of 30 minutes and plate 2 having a TMB incubation time of 15 minutes. Weaker binders to coated CP were tested on plate 1 and stronger binders on plate 2, with some duplication across plates. Probe Ab/blocking Ab interactions are shown in Table 3, and a summary of the binning results for all 8 anti-CP mAbs and for the 5 mAbs showing the most robust signal on coated CP (as shown in FIG. 6) is provided in Tables 4 and 5.

human ceruloplasmin [2] = biological target: T1, human ceruloplasmin; assay: capture ELISA: mAb (CM, 50 ng/mL) on anti-rabbit IgG-Fc; endogenous CP in Li-heparin human plasma 1:10,000
Procedure: (§3) Ceruloplasmin binding by the 28 recombinant anti-CP mAbs was tested as follows. Clear 96-well plates (Nunc, Maxisorp) were coated and incubated overnight at 4 degrees with 10 ug/mL goat anti-rabbit IgG-Fc (Bethyl Laboratories) in BupH carbonate-bicarbonate buffer (ThermoFisher). The coating solution was discarded, and the plates were blocked with 1% BSA in PBS at room temperature for 2 hours and then the blocking solution was discarded. The 28 anti-CP mAb transient conditioned media were diluted to 50 ng/mL in PBS-T containing 1% BSA and incubated on the blocked plates for 1 hour at room temperature. Negative control wells were incubated with PBS-T containing 1% BSA alone or with transient conditioned medium containing non-CP-specific rabbit mAb at 50 ng/mL.

human ceruloplasmin [3] = biological target: T1, human ceruloplasmin; assay: competition ELISA on coated CP, biotinylated probe; competitor: mAb H
Procedure: as §1, §2

human ceruloplasmin [4] = biological target: T1, human ceruloplasmin; assay: competition ELISA on coated CP, biotinylated probe; competitor: mAb E
Procedure: as §1, §2

human ceruloplasmin [5] = biological target: T1, human ceruloplasmin; assay: competition ELISA on coated CP, biotinylated probe; competitor: mAb D
Procedure: as §1, §2

human ceruloplasmin [6] = biological target: T1, human ceruloplasmin; assay: capture ELISA: mAb (CM, 50 ng/mL) on anti-rabbit IgG-Fc; 20 ng/mL purified human CP
Procedure: as §3

human ceruloplasmin [7] = biological target: T1, human ceruloplasmin; assay: competition ELISA on coated CP, biotinylated probe; competitor: mAb G
Procedure: as §1, §2

human ceruloplasmin [8] = biological target: T1, human ceruloplasmin; assay: competition ELISA on coated CP, biotinylated probe; competitor: mAb A
Procedure: as §1, §2

human ceruloplasmin [9] = biological target: T1, human ceruloplasmin; assay: competition ELISA on coated CP, biotinylated probe; competitor: mAb B
Procedure: as §1, §2

human ceruloplasmin [10] = biological target: T1, human ceruloplasmin; assay: competition ELISA on coated CP, biotinylated probe; competitor: mAb F
Procedure: as §1, §2

human ceruloplasmin [11] = biological target: T1, human ceruloplasmin; assay: competition ELISA on coated CP, biotinylated probe; competitor: mAb C
Procedure: as §1, §2

B1: anti-CP mAb C (antibody, V domains shown)
VH: QSVEESGGRLVTPGTPLTLTCTASGFSLSRYYMSWVRQAPGKGLEWIGMIYPSSGSTWYASWVKGRFTISATATSVDLKITSPTTEDTATYFCVRDRYPGYNGDSFNLWGQGTLVTVSS
VL: AQVLTQTASPVSAAVGSTVTINCQASQSVYNNNYLAWFQQKPGQPPKRLIYQASKLAIGVPSRFSGSGSGTQFTLTISDVQCDDAATYYCLGSYGCNSVDCNVFGGGTEVVVKG
notes: Recombinant full-length rabbit IgG from HEK-293; also called mAb2
probe binding, % of diluent control (human ceruloplasmin [1]): 3%
A450 (human ceruloplasmin [2]): 1.27 A450
probe binding, % of diluent control (human ceruloplasmin [3]): 85%
probe binding, % of diluent control (human ceruloplasmin [4]): 99%
probe binding, % of diluent control (human ceruloplasmin [5]): 93%
A450 (human ceruloplasmin [6]): 1.09 A450
probe binding, % of diluent control (human ceruloplasmin [7]): 97%
probe binding, % of diluent control (human ceruloplasmin [8]): 100%
probe binding, % of diluent control (human ceruloplasmin [9]): 95%
probe binding, % of diluent control (human ceruloplasmin [10]): 97%

B4: anti-CP mAb A (antibody, V domains shown)
VH: QSLEESGGDLVKPGASLTLTCKASGFDLSRFYYMCWVRQAPGKGLEWIACIYAGRTGNTYYASWAKGRFTISKTSSTTVTLQMTSLTAADTATYFCARASGDFLAYTYAMDLWGPGTLVTVSS
VL: AAVLTQTPASVSAAVGGTVTISCQASQSVDNNNYLAWYQQKPGQPPKLLIYEASKLASGVPSRFSGSGSGTQFTLTISDVQCDDATTYYCAGGYSSSADANAFGGGTEVVVKG
notes: Recombinant full-length rabbit IgG from HEK-293; tested as conditioned medium, Protein A-purified and biotinylated
probe binding, % of diluent control (human ceruloplasmin [1]): 17%
A450 (human ceruloplasmin [2]): 1.4 A450
probe binding, % of diluent control (human ceruloplasmin [3]): 115%
probe binding, % of diluent control (human ceruloplasmin [4]): 127%
probe binding, % of diluent control (human ceruloplasmin [11]): 138%
probe binding, % of diluent control (human ceruloplasmin [5]): 113%
A450 (human ceruloplasmin [6]): 1.09 A450
probe binding, % of diluent control (human ceruloplasmin [7]): 35%
probe binding, % of diluent control (human ceruloplasmin [9]): 183%
probe binding, % of diluent control (human ceruloplasmin [10]): -2%

B6: anti-CP mAb B (antibody, V domains shown)
VH: QQQLEESGGGLVKPGGTLTLTCKASGIDFSSYYYMCWVRQAPGKGLEWIACIYVIDDTIYCANWAKGRFTISKTSSTTVTLQMTSLTAADTATYFCARDGSSGIRDYFDLWGPGTLVTVSS
VL: AYDMTQTPASVEVAVGGTVTIKCQASESVSTWLAWYQQKPGQPPKLLIYKASDLASGVPSRFKGSGSGTEFTLTISGVECADAATYYCQQGYTYNNVENVFGGGTEVVVKG
notes: as for B4
probe binding, % of diluent control (human ceruloplasmin [1]): 2%
A450 (human ceruloplasmin [2]): 1.32 A450
probe binding, % of diluent control (human ceruloplasmin [3]): 204%
probe binding, % of diluent control (human ceruloplasmin [4]): 87%
probe binding, % of diluent control (human ceruloplasmin [11]): 78%
probe binding, % of diluent control (human ceruloplasmin [5]): 34%
A450 (human ceruloplasmin [6]): 1.02 A450
probe binding, % of diluent control (human ceruloplasmin [7]): 98%
probe binding, % of diluent control (human ceruloplasmin [8]): 94%
probe binding, % of diluent control (human ceruloplasmin [10]): 95%

More lines, now with the values ahead:

probe binding, % of diluent control (human ceruloplasmin [1]): 2%
A450 (human ceruloplasmin [2]): 1.03 A450
probe binding, % of diluent control (human ceruloplasmin [4]): 79%
probe binding, % of diluent control (human ceruloplasmin [11]): 67%
probe binding, % of diluent control (human ceruloplasmin [5]): 33%
A450 (human ceruloplasmin [6]): 0.924 A450
probe binding, % of diluent control (human ceruloplasmin [7]): 95%
probe binding, % of diluent control (human ceruloplasmin [8]): 93%
probe binding, % of diluent control (human ceruloplasmin [9]): 110%
probe binding, % of diluent control (human ceruloplasmin [10]): 94%
B2: anti-CP mAb H (antibody, V domains shown)
VH: QSVEESGGRLVTPGTPLTLTCTVSGFSLSTYAMGWVRQAPGKGLEYIGIIYGGSGTFYASWAKGRFTISKTSTTVDLKITSPTTEDTATYFCARDGDDSYFDYFNLWGQGTLVTVSS
VL: AAVLTQTPASVSAAVGGTVSISCQSNENIGSNLAWYQQKPGQPPKLLIYGASTLTSGVPSRFKGSGSGTAFTLTISGVQCDDAATYYCLGGYLSTSDTTFGGGTAVVVKG
notes: as for B4

probe binding, % of diluent control (human ceruloplasmin [1]): 6%
A450 (human ceruloplasmin [2]): 1.18 A450
probe binding, % of diluent control (human ceruloplasmin [3]): 106%
probe binding, % of diluent control (human ceruloplasmin [4]): 102%
probe binding, % of diluent control (human ceruloplasmin [11]): 108%
probe binding, % of diluent control (human ceruloplasmin [5]): 103%
A450 (human ceruloplasmin [6]): 0.987 A450
probe binding, % of diluent control (human ceruloplasmin [8]): 91%
probe binding, % of diluent control (human ceruloplasmin [9]): 93%
probe binding, % of diluent control (human ceruloplasmin [10]): 84%
B3: anti-CP mAb G (antibody, V domains shown)
VH: QSLEESGGRLVTPGTLLTLTCTVSGFSLSSNAMSWVRQAPGEGLEWIGTISSRGSTYYANWAKGRFTISKTSTTVDLKITSPTTEDTATYFCARSSLAGYEPYYFKLWGQGTLVTVSS
VL: DVVMTQTASPVSAAVGGTVTIKCQASESISSYLAWYQQKPGQPPKLLIYGASDLASGVPSRFKGSGSGTEFTLTISDLECADAATYYCQSYYGLSRNGYGNVFGGGTEVVVKG
notes: Recombinant full-length rabbit IgG from HEK-293; also called mAb3

probe binding, % of diluent control (human ceruloplasmin [1]): 10%
A450 (human ceruloplasmin [2]): 1.25 A450
probe binding, % of diluent control (human ceruloplasmin [3]): 9%
probe binding, % of diluent control (human ceruloplasmin [4]): 98%
probe binding, % of diluent control (human ceruloplasmin [11]): 72%
A450 (human ceruloplasmin [6]): 1.03 A450
probe binding, % of diluent control (human ceruloplasmin [7]): 100%
probe binding, % of diluent control (human ceruloplasmin [8]): 107%
probe binding, % of diluent control (human ceruloplasmin [9]): 98%
probe binding, % of diluent control (human ceruloplasmin [10]): 100%
B5: anti-CP mAb D (antibody, V domains shown)
VH: QEQLVESGGGLVQPEGSLTLTCKASGFDFSSYWMCWVRQAPGKRPEWIACIYGGDGTSYFAGWAKGRFTISKTSSTTVTLQMTSLTAADTATYFCARADYYVYVDGGYGHAYDLWGPGTLVTVSS
VL: DIVMTQTPASVEAAVGGSVTIKCQASDDIYSYLAWYQQKPGQPPKLLIFDASSLPSGVPSRFKGSGSGTQFTLTISGVQCADAATYYCQNYYGSSSSVHAFGGGTEVVVKG
notes: as for B4

— patent publication US20240044920A1 (Alexion, published 2024)
